Experimental data reported in patent US20220251214A1 (JN BIOSCIENCES, published 2022).

Columns and labels:
[1] = target: CD40 on the surface of Ramos cells (human, UniProt P25942 21-277); assay: cell-based or functional assay
[2] = target: CD33 on the surface of HL-60 cells (human, UniProt P20138 18-364); assay: cell-based or functional assay
[3] = target: T1, human GITR (human, UniProt Q9Y5U5 26-161, limits assumed); assay: ELISA
T1 construct: also called TNFRSF18; CD357
T1 sequence: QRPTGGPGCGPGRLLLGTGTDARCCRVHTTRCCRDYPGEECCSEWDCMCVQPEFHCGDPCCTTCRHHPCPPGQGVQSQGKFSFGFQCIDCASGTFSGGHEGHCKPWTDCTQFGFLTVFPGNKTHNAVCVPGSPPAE

[4] = target: T2, human PD-L1 (human, UniProt Q9NZQ7 19-238, limits assumed); assay: ELISA
T2 construct: also called B7H1; CD274

[5] = target: T3, recombinant human PD-L1 on the surface of NS0/PD-L1 cells (PD-L1-FLAG-GPI) (human, UniProt Q9NZQ7 19-238); assay: cell-based or functional assay
[6] = target: T4, human GITR on the cell surface (JD/GITR cells; GITR-expressing T cells) (human, UniProt Q9Y5U5 26-241); assay: cell-based or functional assay
T4 sequence: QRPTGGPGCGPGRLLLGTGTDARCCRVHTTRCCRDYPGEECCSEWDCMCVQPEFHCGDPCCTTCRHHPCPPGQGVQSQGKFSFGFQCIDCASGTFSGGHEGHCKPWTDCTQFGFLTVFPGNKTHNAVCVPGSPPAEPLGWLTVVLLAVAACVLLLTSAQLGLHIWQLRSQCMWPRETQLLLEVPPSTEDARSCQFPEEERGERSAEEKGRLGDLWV

[7] = target: human PD-L1 on PD-L1-expressing cells of human PBMC cultures (human, UniProt Q9NZQ7 19-290); assay: cell-based or functional assay
[8] = target: T5, human OX40 on the cell surface (JD/OX40 cells; OX40-expressing T cells) (human, UniProt P43489 29-277); assay: cell-based or functional assay
T5 sequence: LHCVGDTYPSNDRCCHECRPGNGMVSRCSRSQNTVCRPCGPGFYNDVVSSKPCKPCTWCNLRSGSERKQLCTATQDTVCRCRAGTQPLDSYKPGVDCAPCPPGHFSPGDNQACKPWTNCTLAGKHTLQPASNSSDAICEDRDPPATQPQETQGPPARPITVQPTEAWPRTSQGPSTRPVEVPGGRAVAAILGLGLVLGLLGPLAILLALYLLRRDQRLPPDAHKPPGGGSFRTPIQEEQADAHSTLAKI

[9] = target: recombinant human CD33 on the surface of NS0/CD33 cells (CD33-FLAG-GPI) (human); assay: cell-based or functional assay
[10] = target: T3, recombinant human PD-L1 on the surface …; assay: flow cytometry; blocking of the binding of FITC-labeled hPD-1-Fc to NS0/PD-L1 cells
Description: After washing with and suspending in FACS Buffer, cells were subjected to flow cytometry analysis.

[11] = target: T5, human OX40 on the cell surface (JD/OX40 …); assay: flow cytometry on JD/OX40 cells

human PD-L1 on PD-L1-expressing cells of human PBMC cultures, sequence (Q9NZQ7 19-290 limits assumed): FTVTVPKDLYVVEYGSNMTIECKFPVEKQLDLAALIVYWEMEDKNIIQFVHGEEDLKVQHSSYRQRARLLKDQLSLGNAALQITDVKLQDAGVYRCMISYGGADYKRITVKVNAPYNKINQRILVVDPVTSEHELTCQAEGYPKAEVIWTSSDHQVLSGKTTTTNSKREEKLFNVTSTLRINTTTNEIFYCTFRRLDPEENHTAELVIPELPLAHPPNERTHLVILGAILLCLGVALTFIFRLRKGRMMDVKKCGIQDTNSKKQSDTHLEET
T3 sequence (Q9NZQ7 other isoform, or with tags, fused parts or gaps limits assumed): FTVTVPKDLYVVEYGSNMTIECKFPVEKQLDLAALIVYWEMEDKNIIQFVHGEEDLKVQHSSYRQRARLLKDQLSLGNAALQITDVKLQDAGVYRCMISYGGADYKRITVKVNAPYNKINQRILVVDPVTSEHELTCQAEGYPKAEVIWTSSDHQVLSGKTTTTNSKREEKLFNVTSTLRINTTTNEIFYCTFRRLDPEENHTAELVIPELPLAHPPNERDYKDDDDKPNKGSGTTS
CD40 on the surface of Ramos cells, sequence (P25942 21-277 limits assumed): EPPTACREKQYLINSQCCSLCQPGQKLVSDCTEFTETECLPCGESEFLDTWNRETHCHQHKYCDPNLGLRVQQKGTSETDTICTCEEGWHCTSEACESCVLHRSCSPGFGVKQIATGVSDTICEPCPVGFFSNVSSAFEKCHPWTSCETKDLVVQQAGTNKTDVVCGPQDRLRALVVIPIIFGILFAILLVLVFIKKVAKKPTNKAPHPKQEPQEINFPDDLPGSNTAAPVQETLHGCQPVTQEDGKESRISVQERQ
T2 sequence (Q9NZQ7 19-238 limits assumed): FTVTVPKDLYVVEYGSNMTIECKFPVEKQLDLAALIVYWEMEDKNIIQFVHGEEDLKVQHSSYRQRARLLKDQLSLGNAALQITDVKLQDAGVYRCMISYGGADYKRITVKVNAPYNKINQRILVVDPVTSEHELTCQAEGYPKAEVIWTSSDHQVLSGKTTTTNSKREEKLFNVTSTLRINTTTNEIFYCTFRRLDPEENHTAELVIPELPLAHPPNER
recombinant human CD33 on the surface of NS0/CD33 cells (CD33-FLAG-GPI) (human), sequence (chain, as listed by the source limits assumed): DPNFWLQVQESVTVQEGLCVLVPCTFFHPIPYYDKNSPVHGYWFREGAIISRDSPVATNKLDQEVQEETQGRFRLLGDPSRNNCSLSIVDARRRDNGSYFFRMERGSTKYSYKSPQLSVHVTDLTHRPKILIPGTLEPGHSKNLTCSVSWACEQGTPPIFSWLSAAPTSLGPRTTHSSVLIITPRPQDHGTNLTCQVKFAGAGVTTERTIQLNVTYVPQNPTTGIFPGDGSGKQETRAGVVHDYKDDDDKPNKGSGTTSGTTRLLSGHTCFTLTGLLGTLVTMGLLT
CD33 on the surface of HL-60 cells, sequence (P20138 18-364 limits assumed): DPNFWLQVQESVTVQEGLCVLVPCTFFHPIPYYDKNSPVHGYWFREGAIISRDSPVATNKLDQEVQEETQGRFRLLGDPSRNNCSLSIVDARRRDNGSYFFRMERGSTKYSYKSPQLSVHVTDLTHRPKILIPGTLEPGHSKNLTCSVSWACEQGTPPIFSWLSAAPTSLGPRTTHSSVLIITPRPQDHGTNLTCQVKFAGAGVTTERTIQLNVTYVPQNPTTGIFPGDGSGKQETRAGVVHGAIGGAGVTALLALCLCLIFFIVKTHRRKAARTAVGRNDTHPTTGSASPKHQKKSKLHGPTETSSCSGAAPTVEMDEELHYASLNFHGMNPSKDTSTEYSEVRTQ

B1: BS828 (bispecific antibody, human IgG1, kappa, L234A L235A)
heavy: not shown
light: DIQMTQSPSSLSASVGDRVTITCRASESVDNYGISFMNWFQQKPGGAPKLLIYAASNQGSGVPSRFSGSGSGTDFTLTISSLQPDDFATYYCQQSKEVPWTFGQGTKVEIKRTVAAPSVFIFPPSDEQLKSGTASVVCLLNNFYPREAKVQWKVDNALQSGNSQESVTEQDSKDSTYSLSSTLTLSKADYEKHKVYACEVTHQGLSSPVTKSFNRGEC
percentage of CD95-positive population among Ramos cells, 0.5 µg/ml antibody, in the presence of HL-60 cells [1]: 58.4% | percentage of CD95-positive population among Ramos cells, 0.5 µg/ml antibody, in the presence of HL-60 cells [2]: 58.4%

B2: HuACS2-IgG1.AA (antibody, V domains shown)
VH: QVQLVQSGAEVKKPGSSVKVSCKASGYTFTSYWLHWVRQAPGQGLEWIGRIDPNSGDTKYNEKFKSRATITVDKSTSTAYMELSSLRSEDTAVYYCARYYYGRSYFDYWGQGTTVTVSS
VL: IVLTQSPATLSLSPGERATLSCSASSSVSYMHWYQQKPGQAPRRWIYDTSKLASGVPARFSGSGSGTDYTLTISSLEPEDFAVYYCQQWSSNPLTFGGGTKVEIKR
percentage of CD95-positive population among Ramos cells, 0.5 µg/ml antibody, in the presence of HL-60 cells [1]: 0.7%

B3: BS853 (bispecific antibody, human IgG1, kappa, L234A L235A)
heavy: not shown
light: EIVLTQSPATLSLSPGERATLSCSASSSVSYMHWYQQKPGQAPRPWIYDTSNLASGFPARFSGSGSGTDFTLTISSLEPEDFAVYYCHQRSSYPWTFGGGTKVEIKRTVAAPSVFIFPPSDEQLKSGTASVVCLLNNFYPREAKVQWKVDNALQSGNSQESVTEQDSKDSTYSLSSTLTLSKADYEKHKVYACEVTHQGLSSPVTKSFNRGEC
notes: Transiently expressed in HEK293 cells; Cysteines at position 44 of VH and 100 of VL of the anti-GITR scFv; also called modified bispecific antibody encoded in pBS853; BS809 with disulfide-linked anti-GITR scFv
binding result [3]: binds | binding result [4]: binds

B4: BS809 (bispecific antibody, human IgG1, kappa, L234A L235A)
heavy: not shown
light: EIVLTQSPATLSLSPGERATLSCSASSSVSYMHWYQQKPGQAPRPWIYDTSNLASGFPARFSGSGSGTDFTLTISSLEPEDFAVYYCHQRSSYPWTFGGGTKVEIKRTVAAPSVFIFPPSDEQLKSGTASVVCLLNNFYPREAKVQWKVDNALQSGNSQESVTEQDSKDSTYSLSSTLTLSKADYEKHKVYACEVTHQGLSSPVTKSFNRGEC
average relative luciferase unit (RLU) in the culture supernatants of JD/GITR cells, 1 µg/ml antibody, with NS0/PD-L1 cells [5]: 1.04e+06 RLU | average IL-2 concentration in PBMC-derived T cells of donor 4143, 1 µg/ml antibody [6]: 4200 pg/mL | average relative luciferase unit (RLU) in the culture supernatants of JD/GITR cells, 1 µg/ml antibody, with NS0/PD-L1 cells [6]: 1.04e+06 RLU | average IL-2 concentration in PBMC-derived T cells of donor 4143, 1 µg/ml antibody [7]: 4200 pg/mL

B5: BS824 (bispecific antibody, human IgG1, kappa, L234A L235A)
heavy: not shown
light: DIQMTQSPSSLSASVGDRVTITCRASESVDNYGISFMNWFQQKPGGAPKLLIYAASNQGSGVPSRFSGSGSGTDFTLTISSLQPDDFATYYCQQSKEVPWTFGQGTKVEIKRTVAAPSVFIFPPSDEQLKSGTASVVCLLNNFYPREAKVQWKVDNALQSGNSQESVTEQDSKDSTYSLSSTLTLSKADYEKHKVYACEVTHQGLSSPVTKSFNRGEC
average relative luciferase unit (RLU) in JD/OX40 cells, 1 µg/ml antibody, with NS0/CD33 cells [8]: 21700 RLU | average relative luciferase unit (RLU) in JD/OX40 cells, 1 µg/ml antibody, with NS0/CD33 cells [9]: 21700 RLU

B6: HuPRO1-IgG1.AA (antibody, V domains shown)
VH: QVQLVQSGAEVKKPGSSVKVSCKASGFTFSSSYISWVRQAPGQGLEWIAWIYAGTGGTSYNQKFTGRATITVDESTSTAYMELSSLRSEDTAVYYCARHEGVYWYFDVWGQGTTVTVSS
VL: EIVLTQSPATLSLSPGERATLSCSASSSVSYMHWYQQKPGQAPRPWIYDTSNLASGFPARFSGSGSGTDFTLTISSLEPEDFAVYYCHQRSSYPWTFGGGTKVEIKR
notes: Humanized IgG1/kappa with L234A/L235A; Heavy chain built from VH and the constant exons of pHuM195-IgG1; also called humanized PRO1; anti-PD-L1
IC50 [10]: 0.106 µg/mL | average IL-2 concentration in PBMC-derived T cells of donor 4143, 1 µg/ml antibody [7]: 1450 pg/mL

B7: BS813 (bispecific antibody, human IgG1, kappa, L234A L235A)
heavy: not shown
light: EIVLTQSPATLSLSPGERATLSCSASSSVSYMHWYQQKPGQAPRPWIYDTSNLASGFPARFSGSGSGTDFTLTISSLEPEDFAVYYCHQRSSYPWTFGGGTKVEIKRTVAAPSVFIFPPSDEQLKSGTASVVCLLNNFYPREAKVQWKVDNALQSGNSQESVTEQDSKDSTYSLSSTLTLSKADYEKHKVYACEVTHQGLSSPVTKSFNRGEC
average IL-2 concentration in human PBMC-derived T cells (PHA-L-treated, OKT3-coated plate), 1 µg/ml antibody [8]: 2200 | average IL-2 concentration, SEB-treated human PBMC, 1 µg/ml antibody [8]: 17.7 ng/mL | average relative luciferase unit (RLU) in JD/OX40 cells, 1 µg/ml antibody, with NS0/PD-L1 cells [8]: 23700 RLU | average relative luciferase unit (RLU) in JD/OX40 cells, 1 µg/ml antibody, with NS0/PD-L1 cells [5]: 23700 RLU | average IL-2 concentration in human PBMC-derived T cells (PHA-L-treated, OKT3-coated plate), 1 µg/ml antibody [7]: 2200 | average IL-2 concentration, SEB-treated human PBMC, 1 µg/ml antibody [7]: 17.7 ng/mL

B8: HuOHX14DS-IgG1.AA (antibody, V domains shown)
VH: QVQLVQSGAEVKKPGSSVKVSCKASGYTFTSYIMHWVRQAPGQGLEWIGYINPYNSGTKYNEKFKGRVTITSDKSTSTAYMELSSLRSEDTAVYYCAHYYGSTFTMDYWGQGTTVTVSS
VL: DIQMTQSPSSLSASVGDRVTITCRASQDIRTYLNWYQQKPGKVPKLLIYYTSRLHSGVPSRFSGSGSGTDYTLTISSLQPEDVATYYCQQGNTLPWTFGGGTKVEIKR
average relative luciferase unit (RLU) in JD/OX40 cells, 1 µg/ml antibody, with NS0/CD33 cells [8]: 8700 RLU | average relative luciferase unit (RLU) in JD/OX40 cells, 1 µg/ml antibody, with NS0/PD-L1 cells [8]: 5920 RLU

B9: BS841 (bispecific antibody, human IgG1, kappa, L234A L235A)
heavy: not shown
light: DIQLTQSPSFLSASVGDRVTITCSASSSVNYMHWFQQKPGKAPKLWIYSTSNLASGVPSRFSGSGSGTEFTLTISSLQPEDFATYYCQQRSSYPLTFGGGTKVEIKRTVAAPSVFIFPPSDEQLKSGTASVVCLLNNFYPREAKVQWKVDNALQSGNSQESVTEQDSKDSTYSLSSTLTLSKADYEKHKVYACEVTHQGLSSPVTKSFNRGEC
average IL-2 concentration in human PBMC-derived T cells (PHA-L-treated, OKT3-coated plate), 1 µg/ml antibody [8]: 1700 | average IL-2 concentration, SEB-treated human PBMC, 1 µg/ml antibody [8]: 16.5 ng/mL | average IL-2 concentration in human PBMC-derived T cells (PHA-L-treated, OKT3-coated plate), 1 µg/ml antibody [7]: 1700 | average IL-2 concentration, SEB-treated human PBMC, 1 µg/ml antibody [7]: 16.5 ng/mL

B10: HuPRO2-IgG1.AA (antibody, V domains shown)
VH: VQLVQSGAEVKKPGSSVKVSCKASGYTFTSYGINWVRQAPGQGLEWIGYIYPGSGGPVYNQKFKGRVTLTADKSTSTAYMELSSLRSEDTAVYYCARENYRYWYFDVWGQGTTVTVSS
VL: DIQLTQSPSFLSASVGDRVTITCSASSSVNYMHWFQQKPGKAPKLWIYSTSNLASGVPSRFSGSGSGTEFTLTISSLQPEDFATYYCQQRSSYPLTFGGGTKVEIKR
notes: Humanized IgG1/kappa with L234A/L235A; also called humanized PRO2; Anti-PD-L1 #2
IC50 [10]: 0.055 µg/mL

B11: HuPRO5-IgG1.AA (antibody, V domains shown)
VH: QVQLQESGPGLVKPSQTLSLTCTVSGDSISSGYWNWIRQPPGKGLEYMGYISYTGSTYSNPSLKSRVTISRDTSKNQFSLKLSSVTAADTAVYYCARSQNWERAWFAYWGQGTLVTVSS
VL: DIQMTQSPSSLSASVGDRVTITCSASSSVSYMHWYQQKPGKAPKLWIYDTSKLASGVPSRFSGSGSGTDFTLTISSLQPEDFATYYCFQGSGYPFTFGGGTKVEIKR
notes: also called humanized PRO5; Anti-PD-L1 #5
IC50 [10]: 0.087 µg/mL

B12: HuM195-IgG1 (antibody, V domains shown)
VH: QVQLVQSGAEVKKPGSSVKVSCKASGYTFTDYNMHWVRQAPGQGLEWIGYIYPYNGGTGYNQKFKSKATITADESTNTAYMELSSLRSEDTAVYYCARGRPAMDYWGQGTLVTVSS
VL: DIQMTQSPSSLSASVGDRVTITCRASESVDNYGISFMNWFQQKPGGAPKLLIYAASNQGSGVPSRFSGSGSGTDFTLTISSLQPDDFATYYCQQSKEVPWTFGQGTKVEIKR
notes: Humanized IgG1/kappa, wild-type CH2; also called humanized anti-CD33 IgG1/kappa antibody; anti-CD33
binding result [11]: no binding
